Laboratory results published in US20240327477A1, “COMPOSITIONS AND METHODS FOR THE TREATMENT OF TDP-43 PROTEINOPATHIES” (SOLA BIOSCIENCES LLC, priority 2020, published 2024).
“Also recorded” adds a separate entry of the source. Each block holds one compound with its values, some of them ahead of it. Where a SMILES comes first, the peptide text is derived from it. The star is where a group is joined. Cbz = O=C(OCc1ccccc1)*

Columns and labels:
GFP-TDP43CTF [1] = test: Bafilomycin A1 or MG132 treatment of cells co-expressing reporter and Construct 3, immunoblot; type: cell-based, human; settings: immunoblot (FIG. 10)
Text: Cells were transfected either with the reporter construct GFP-TDP43FL (lane 2) or GFP-TDP43CTF (lanes 3-8), and co-transfected with nucleic acids encoding Construct 3 (lanes 4-8).
We next investigated the mechanism of the fusion protein in reducing aggregation. HEK293 cells were transfected with the GFP-TDP43FL or GFP-TDP43CTF reporter construct, either alone or with Construct 3 (JB1-scFv (3B12A)), as well as with BFA (Bafilomycin A1, an inhibitor of the late phase of autophagy) or MG132 (proteasome inhibitor).

[2] = type: in vivo, mouse; settings: C57BL/6J mice, AAV rh10 vector encoding Construct 3 vs control, three weeks after ICV or IT injection; data not shown
GFP-TDP43CTF [3] = target: T1, GFP-TDP43CTF (Homo sapiens, UniProt Q13148); test: Fluorescence microscopy of GFP-TDP43CTF aggregation (GFP foci) in transfected HEK293 cells; type: cell-based; settings: for reduction of TDP-43 aggregation: GFP-TDP43CTF reporter, vs reporter alone (FIG. 8/9, Table 12); for aggregation of GFP-TDP43CTF reporter in cells (in words): HEK293 cells, vs reporter alone
T1 construct: expressed in transfected cells; host or cells: HEK293
Procedure: (§1) Expression vector plasmids encoding various protein constructs were transfected into HEK293 cells with Lipofectamine 3000 transfection reagent (Thermo Fisher Scientific). Cell lysates were analyzed for expressed proteins using immunoblot assays. Samples of culture media were centrifuged to remove debris prior to analysis. Cells were lysed in a lysis buffer (10 mM Tris-HCl, pH 8.0, 150 mM NaCl, 10 mM EDTA, 2% SDS) containing 2 mM PMSF and protease cocktail (Complete Protease Inhibitor Cocktail; Sigma). After brief sonication, the samples were analyzed for expressed proteins using immunoblot assays. For immunoblot analysis, samples were boiled in an SDS-sample buffer and run on polyacrylamide electrophoresis. Thereafter, the separated protein bands were transferred to a PVDF membrane.
(§2) In some instances, aggregation of TDP-43 (full-length of C-terminal fragment) GFP reporter constructs (described below) were detected in vivo using fluorescence microscopy. Cultured cells expressing the reporter constructs as well as the fusion protein comprising the J domain and TDP-43-binding domain were washed with PBS and fixed with 4% paraformaldehyde in PBS for 5 minutes. After three 5-min washes with PBS, nuclear DNA was stained with DAPI. Percentage of cells containing TDP-43 (GFP foci) in transfected cells was counted.
We first investigated whether the fusion molecule of the present invention targeting TDP-43 ameliorates its aggregation in cultured cells. To this end, we generated GFP-based reporter constructs GFP-TDP43 and GFP-TDP43, wherein GFP was fused at its C-terminus to either the full-length human TDP-43 protein or the C-terminal fragment TDP-43 which is known to form cytoplasmic aggregation and cytotoxicity (See Table 8 below). HEK293 cells were cultured and transfected with the plasmids encoding the full-length TDP43 or the C-terminal fragment of TDP43, containing the C-terminal 207 amino acids TDP-43 (amino acids 208-414 of human TDP-43) as a GFP fusion [GFP-TDP43FL (SEQ ID NO: 101) or GFP-TDP43CTF (SEQ ID NO: 102)].

GFP-TDP43FL [4] = target: T2, GFP-TDP43FL (Homo sapiens, UniProt Q13148); test: Fluorescence microscopy of GFP-TDP43FL aggregation (GFP foci) in transfected HEK293 cells; type: cell-based; settings: vs negative controls and construct 2 (FIG. 7)
T2 construct: expressed in transfected cells; host or cells: HEK293
Procedure: as §1
as §2, with “counted. […]” for “counted.”

human TDP-43ΔNLS = target: T3, human TDP-43ΔNLS (Homo sapiens, UniProt Q13148, K82A/K84A/R83A); test: Efficacy in rNLS8 (NEFH-tTA x hTDP-43ΔNLS) mouse model of ALS, ICV AAV rh10; type: in vivo; settings: rNLS8 mice (Dox −)
T3 construct: expressed in transfected cells; host or cells: transgene in NEFH-tTA x hTDP-43ΔNLS bigenic mice (rNLS mice), in vivo
Procedure: Vectors prepared above were tested on TDP-43-asociated pathologies of a novel AAV NEFH-tTA×hTDP-43ΔNLS bigenic mice (rNLS mice). This model has a doxycycline (DOX)-repressible construct expressing pathogenic TDP-43 (human TDP-43ΔNLS). Upon removal of DOX, TDP-43ΔNLS expression causes a rapid and progressive deterioration of the animals, causing severe weight loss and, generally within 6-8 weeks, death. We tested the efficacy of Construct 3 (JB1-scFv (3B12A), SEQ ID NO: 80) in slowing the progression of TDP-43ΔNLS-mediated pathology. AAV rh10 containing control or Construct 3 were administered ICV unilaterally at P1/P2 at a volume of 2 ul (maximum 4 ul) in different groups as shown below in Table 17. Except for the control group 1, DOX removal occurred at week 5. Control mice in group
Body weight was measured twice weekly after weaning. After completion of testing, samples were collected from all surviving mice. Whole brains were collected and split into 2 hemispheres. One hemisphere were weighed and frozen on dry ice. The second hemisphere were post fixed in 4% PFA for histology assessments.

GFP-TDP43CTF [5] = target: T1, GFP-TDP43CTF; test: Immunoblot (anti-GFP) of reporter level in cell extracts; type: cell-based; settings: vs negative control
Procedure: as §1
(§3) Expressed proteins were detected using a chemiluminescent signal. Briefly, blots were reacted with a primary antibody capable of binding the particular epitope (e.g., GFP). After rinsing away the unreacted primary antibody, a secondary, enzyme-linked antibody (e.g., HRP-linked anti-lgG antibody) was allowed to react with the primary antibody molecules bound to the blots. Following rinsing, a chemiluminescent reagent was added, and the resultant chemiluminescent signals in the blots were captured on X-ray film.

GFP-TDP43FL [6] = target: T2, GFP-TDP43FL; test: as above; type: cell-based; settings: cell extracts (FIG. 5)
Procedure: as §1, §3

GFP-TDP43CTF [7] = target: T1, GFP-TDP43CTF; test: Fractionation assay: soluble and insoluble fractions, immunoblot; type: cell-based; settings: GFP-TDP43CTF reporter, HEK293 cells
Procedure: Transfected HEK293 cells are homogenized in RIPA buffer (50 mM Tris, pH7.5, 150 mM NaCl, 0.1% NP-40, 0.5% sodium deoxycholate, 0.1% SDS) supplemented with protease inhibitor cocktail, 2 mM PMSF, 10 mM NaF, and 2 mM Na3VO4. After brief sonication, protein concentration is measured by BCA assay kit (Pierce). The equal protein amount is spun down by centrifugation at 16,000×g for 30 minutes at 4° C. to fractionate into soluble fraction (supernatant) and insoluble fraction (pellet). The insoluble fraction is further solubilized in SDS lysis buffer (10 mM Tris, pH8.0, 150 mM NaCl, 2% SDS). Both soluble and insoluble fractions were applied to SDS-PAGE under reducing condition, followed by immunoblotting assay with anti-GFP antibody.

aggregation of GFP-TDP43CTF reporter in cells (in words) (GFP-TDP43CTF [3]): did not reduce aggregation
levels of the full-length reporter construct (GFP-TDP43FL), anti-GFP immunoblot (in words) (GFP-TDP43FL [6]): No differences
Compound: Construct 4: Same as construct 3, with a P33Q mutation in the conserved HPD motif

reduction of TDP-43 aggregation (GFP-TDP43CTF [3]): ~71%
amount of GFP-TDP43CTF reporter protein, anti-GFP immunoblot (in words) (GFP-TDP43CTF [5]): lower levels
Compound: Construct 14: J domain from DnaJB1 fused to two tandem copies of QBP1

ability to reduce aggregation of GFP-TDP43CTF (in words, with Table 15) (GFP-TDP43CTF [7]): potent reduction
Compound: Construct 20: Construct 3 containing the dimerization domain from human DnaJA1

More lines, now with the values behind:

Compound: CO/C1=C\C(C)=C\[C@@H](C)[C@@H](O)[C@@H](C)C/C(C)=C/C=C/[C@H](OC)[C@@H]([C@@H](C)[C@@H](O)[C@H](C)[C@@]2(O)C[C@@H](O)[C@H](C)[C@@H](C(C)C)O2)OC1=O [BFA, Bafilomycin A1]
level of GFP-TDP43CTF reporter in cells co-expressing Construct 3 after BFA treatment (GFP-TDP43CTF [1]; BFA 0.01 μM (10 nM) or 0.1 μM (100 nM)): higher levels; also recorded: reappearance of pathogenic TDP43 in a dose dependent manner

Compound: CC(C)C[C@@H](C=O)NC(=O)[C@H](CC(C)C)NC(=O)[C@H](CC(C)C)NC(=O)OCc1ccccc1 [MG132] (Cbz-Leu-Leu-Leu-aldehyde)
level of GFP-TDP43CTF reporter in cells co-expressing Construct 3 after MG132 treatment (GFP-TDP43CTF [1]; MG132 0.1 μM or 1.0 μM): little to no effect

Compound: Construct 3: DnaJB1 J domain fused to scFv(3B12A)
body weight [2]: No difference in body weight
reduction of TDP-43 aggregation (GFP-TDP43CTF [3]): > 90%
aggregation of GFP-TDP43CTF reporter in cells (in words) (GFP-TDP43CTF [3]): substantially reduced aggregation
aggregation of GFP-TDP43CTF reporter in cells (in words) (GFP-TDP43CTF [3]; listed as construct 3): dramatically reduced
aggregation level in cells expressing GFP-TDP43FL reporter (in words) (GFP-TDP43FL [4]): modest reduction
survival at week 10 (human TDP-43ΔNLS; AAV rh10 6 × 10^10 vg ICV at P1, DOX removal at week 5 (FIG. 16C)): 100%
body weight compared with Group 2 (AAV control, DOX off) (human TDP-43ΔNLS; males, AAV rh10 6 × 10^10 vg ICV at P1, DOX removal at week 5 (FIG. 16B)): statistically significant weight increase
amount of GFP-TDP43CTF reporter protein, anti-GFP immunoblot (in words) (GFP-TDP43CTF [5]): lower levels
amount of GFP-TDP43CTF reporter protein, anti-GFP immunoblot (in words) (GFP-TDP43CTF [5]; listed as construct 3): marked reduction
levels of the full-length reporter construct (GFP-TDP43FL), anti-GFP immunoblot (in words) (GFP-TDP43FL [6]): No differences

Compound: Construct 5: Reversed arrangement of J domain and TDP-43 from Construct 3
aggregation of GFP-TDP43CTF reporter in cells (in words) (GFP-TDP43CTF [3]): dramatically reduced
aggregation level in cells expressing GFP-TDP43FL reporter (in words) (GFP-TDP43FL [4]): modest reduction

Compound: Construct 9: Full-length J protein control [reference compound]
reduction of TDP-43 aggregation (GFP-TDP43CTF [3]): ~43%
amount of GFP-TDP43CTF reporter protein, anti-GFP immunoblot (in words) (GFP-TDP43CTF [5]): lower levels
